The values below come from PMC9513282.

HiLyteFluor 488 = N-terminal fluorophore; QXL 520 = dark quencher

For assay [1], the target named is AMUC_1438 CAT construct (residues 41-427) (Akkermansia muciniphila) (UniProt B2UKY7).
In assay [2] the target is AMUC_1438 FL construct (Akkermansia muciniphila) (UniProt B2UKY7).

B1: IgA1FRET, custom FRET O-glycopeptide substrate based on the IgA1 hinge region (peptide)
peptide: {HiLyteFluor 488}-TPSPSTPPTK-{QXL 520}
modifications: not fully specified (residue 5); printed as TPSP**S**TPPTK
Consider B1, for which the KM of hydrolysis of the IgA1FRET O-glycopeptide (FRET dequenching, steady-state kinetics, Michaelis-Menten fit; 1 μM enzyme, 0 to 1000 μM substrate, 20 mM Tris-HCl pH 7.0, 100 μM zinc chloride) in assay [1] is 300 μM; in assay [2], 122 μM.
